Results on six molecules are retold here after patent US20170190782A1 (ABGENOMICS COOPERATIEF U A, published 2017).

Assay [1] has as its target human P-Selectin Glycoprotein Ligand-1 (PSGL-1) (human) (UniProt Q14242). Kind of assay: FACS, inhibition of recombinant human P-selectin binding to activated T cells; competitor P-selectin. On the technique in general: In flow cytometry, cells or beads pass a laser one at a time.
For assay [2], the target named is T1, human P-Selectin Glycoprotein Ligand-1 (PSGL-1) (human, UniProt Q14242 42-412).
T1 construct: whole, on cells; also called hCD162; human CD162
T1 sequence (looked up): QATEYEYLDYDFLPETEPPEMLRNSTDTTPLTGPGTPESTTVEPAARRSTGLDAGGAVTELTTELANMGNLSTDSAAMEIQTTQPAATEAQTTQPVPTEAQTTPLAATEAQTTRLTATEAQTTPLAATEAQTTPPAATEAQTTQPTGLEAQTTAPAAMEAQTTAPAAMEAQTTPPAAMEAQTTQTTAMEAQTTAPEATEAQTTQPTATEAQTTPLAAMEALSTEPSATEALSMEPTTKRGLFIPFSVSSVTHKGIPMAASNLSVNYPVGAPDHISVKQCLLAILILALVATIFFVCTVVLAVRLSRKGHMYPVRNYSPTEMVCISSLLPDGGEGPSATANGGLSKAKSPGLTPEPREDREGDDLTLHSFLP
Briefly: derived from FACS competition against Biotin-labeled mouse 15A7 on CD162-expressing Sp2/0 cells. As for the experimental part:
(§1) Sp2/0 transfectants stably expressing human CD162 were used as source of human CD162 antigen. Biotin-labeled mouse 15A7 was used as tracer. Increasing amounts of competitor antibodies (mouse, chimeric, or humanized 15A7) were mixed with 35 ng of Biotin-labeled mouse 15A7 and incubated with 1×10⁵ CD162-expressing Sp2/0 cells for 1.5 hours at 4° C. with constant shaking. After washing, secondary antibody, Streptavidin-PE (Becton Dickinson Immunocytometry System Inc. Cat. No. 349023) was added to the mixture. After incubating for 45 minutes at 4° C., the cells were washed again, resuspended in 300 μl of PBS-1% of FBS, and subjected to FACS analysis.

Assay [3] concerns the target T1, human P-Selectin Glycoprotein Ligand-1 …. Kind of assay: FACS competition against Biotin-labeled mouse 15A7 on CD162-expressing Sp2/0 cells. As for the experimental part:
as §1

Assay [4] has the same target. Briefly: FACS, inhibition of recombinant human P-selectin binding to activated T cells; competitor P-selectin. As for the experimental part: (§2) Human PBMC were activated with 1% PHA for 2 days and maintained in IL-2-containing medium for 3 days. The cells were incubated with titrated 9F9, 15A7, 43B6, KPL-1 (an PSGL-1 antagonist), or a control antibody (9E10) for 30 minutes, followed by the addition of recombinant human P-selectin (1.25 μg/ml). Binding of P-selectin to activated T cells was measured by anti-P-selectin-FITC analyzed on FACS. Consistent with previous reports, KPL-1 almost completely abolished P-selectin's binding to activate T cells at a low concentration (0.31 μg/ml). 43B6 blocked binding of P-selectin to activated T cells as effectively as KPL-1 did, whereas a higher concentration of 9F9 was required to achieve the same effect. Indeed, 0.08 μg/ml KPL or 43B6 was needed to abolish 50% of the binding. In contrast, 5 μg/ml 9F9 was required.

The target in assay [5] is T2, E. coli expressed hCD162 fragment 42-80 fused to human immunoglobulin gamma 1 heavy chain constant region (human, UniProt Q14242 42-80).
T2 construct: range 42-80; Expressed in E. coli from pET-32a; junction residues are not spelled out; not shown: human immunoglobulin gamma 1 heavy chain constant region
T2 chain (looked up): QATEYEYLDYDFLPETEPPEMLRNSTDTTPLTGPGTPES
Briefly: sandwich ELISA, fusion protein captured by goat anti-human IgG, antibody at 2 µg/ml. The protocol:
(§3) A sandwich ELISA was conducted to study the interaction between the hCD162 fragments and each of 15A7, 9F9, and 43B6. 96-well microtiter plates were coated with goat anti-human IgG (Southern Biotechnology, Cat. No. 2040-01) antibody (2 μg/ml, 50 μl/well) overnight at 4° C. Plates were blocked by incubation with 0.25% of BSA in PBS (150 μl/well) for 1 hour at 37° C. The blocked plates were then incubated with fusion proteins containing various fragments of human CD162 (2 μg/ml) for 2 hours at room temperature. After washing 4 times with PBS containing 0.05% of Tween 20 (PBST), the plates were incubated with testing antibodies (2 μg/ml) for 1.5 hours at room temperature.
(§4) After incubation, the plates were washed 4 times with PBST. 50 μl of 1 to 3000 diluted goat anti-mouse IgG conjugated with alkaline phosphatase (Southern Biotechnology, Cat. No. 1031-04) was then added to each well and the plates were incubated for 1 hour at 37° C. Enzyme reaction was carried out by adding 50 μl of an alkaline phosphatase substrate solution (1 alkaline phosphatase substrate tablet dissolved in 5 ml of substrate buffer containing 0.012 M of Na₂CO₃, 0.16 M of NaHCO₃ and 1 mM of MgCl₂ at pH 8.6), and absorbance at 405 nm was determined.

Assay [6] addresses T3, E. coli expressed hCD162 fragment 42-319 fused to human immunoglobulin gamma 1 heavy chain constant region (human, UniProt Q14242 42-319).
T3 construct: Expressed in E. coli from pET-32a; junction residues are not spelled out; not shown: human immunoglobulin gamma 1 heavy chain constant region
T3 sequence (looked up): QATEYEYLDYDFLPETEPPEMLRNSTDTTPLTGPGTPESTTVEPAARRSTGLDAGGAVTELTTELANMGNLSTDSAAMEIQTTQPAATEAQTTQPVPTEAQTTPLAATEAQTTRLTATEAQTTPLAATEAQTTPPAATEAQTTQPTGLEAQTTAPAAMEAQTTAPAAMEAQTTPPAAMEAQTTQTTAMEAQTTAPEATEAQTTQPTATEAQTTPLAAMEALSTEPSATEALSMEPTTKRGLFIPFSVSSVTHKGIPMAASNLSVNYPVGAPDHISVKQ
The description is as above. As for the experimental part:
as §3, §4

The target of assay [7] is T4, E. coli expressed hCD162 fragment 42-119 fused to human immunoglobulin gamma 1 heavy chain constant region (human, UniProt Q14242 42-119).
T4 construct: range 42-119; Expressed in E. coli BL21(DE3) from pET-32a; NdeI/BglII cloning adds a start Met and junction residues that are not spelled out; also called fusion protein covering residues 42-119; not shown: human immunoglobulin gamma 1 heavy chain constant region
T4 sequence (looked up): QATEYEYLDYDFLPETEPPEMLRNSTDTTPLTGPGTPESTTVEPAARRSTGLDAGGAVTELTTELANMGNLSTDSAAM
The description is as above. The protocol:
as §3, §4

The target of assay [8] is T1, human P-Selectin Glycoprotein Ligand-1 …. Kind of assay: cell-based or functional assay.
Assay [9] has the same target. Kind of assay: FACS, inhibition of recombinant human P-selectin binding to activated T cells; competitor P-selectin; the antibody binds PSGL-1 but does not block. The protocol: as §2
The target in assay [10] is T2, E. coli expressed hCD162 fragment 42-80 …. Briefly: sandwich ELISA, fusion protein captured by goat anti-human IgG. As for the experimental part:
as §3, §4
For orientation: In an ELISA, binding on a coated surface is turned into a signal by an enzyme label.

Assay [11] concerns the target T4, E. coli expressed hCD162 fragment …. The assay is described as above. As for the experimental part: as §3, §4

Broadly, the IC50 is the point on the concentration scale where inhibition reaches its midpoint.

Consider KPL-1 anti-hCD162 antibody (PharMingen), for which, in [1], the IC50 was 0.08 µg/mL and the concentration that almost completely abolished P-selectin's binding came to 0.31 µg/mL.

B1: humanized 15A7 antibody (antibody, V domains shown)
VH: EVQLVESGGGLVQPGGSLRLSCAASGFTFSSFGMHWVRQAPGKGLEWVAYINGGSSTIFYANAVKGRFTISRDNAKNTLYLQMNSLRAEDTAVYYCARYASYGGGAMDYWGQGTLVTVSS
VL: DIQMTQSPSSLSASVGDRVTITCRSSQSIVHNDGNTYFEWYQQKPGKAPKLLIYKVSNRFSGVPSRFSGSGSGTHFTLTISSLQPEDFATYYCFQGSYVPLTFGQGTKVEIK
notes: V regions were inserted into the pVk and pVg4 vectors (human kappa light chain constant region, human IgG4 heavy chain constant region); also called Hu15A7
In the case of B1, in assay [2], the Ka came to 3.33e+07 M⁻¹. This molecule came in with an IC50 in assay [3] of roughly 4.51 µg/mL.

B2: mouse 9F9 antibody (antibody, V domains shown)
VL: DVLMTQTPLSLPVSLGDQASISCRSSQSIVNSNGNTYLEWYLQKPGQSPKLLIYKVSNRFSGVPDRFSGSGSGTDFTLKISRVEAEDLGVYYCFQGSHVPWTFGGGTKLEIK
VH: EVQLVETGGGLVQPKGSLKLSCAASGFTFNTNAMNWVRQAPGKGLEWVARIRSKSNNYATYYADSVKDRFTISRDDTQSMIYLQMNNLKTEDTGMYYCVRGGSYWYFDVWGAGTTVTVSS
notes: Mouse IgG1 from hybridoma m128-9F9; also called m128-9F9
With B2, in assay [4], the IC50 came out at 5 µg/mL. Moreover, the binding result in assay [5], in assay [6] and in assay [7] was “binds” each time. Further, the “Percentage of apoptotic T cells (annexin V positive, CD3 gated), Day 0 non-activated human T cells” value (“Percentage … Day 0 non-activated human T cells” for short) in [8] stood at 5.82%. Further, the “Percentage of apoptotic T cells (annexin V positive, CD3 gated), Day 7 in vitro activated human T cells” value (shortened to “Percentage … in vitro activated human T cells”) in assay [8] worked out at 28.7%.

B3: mouse 43B6 antibody (antibody, V domains shown)
VL: ENVLTQSPAIMSASPGEKVTMTCRASSTVNSTYLHWFQQKSGASPKLWIYGSSNLASGVPARFSGSGSGTSYSLTISSVEAEDAATYYCQQYSGYPLTFGAGTTLELK
VH: EVQLQQSGPDLVKPGALVKISCKASGYSFTAYYIHWVKQSHGKSLEWIGRVNPNTGGTSYNPKFKGKAILNVDKSSSTAYMELRSLTSEDSAVYYCARSGSPYYRYDDWGQGTTLTVSS
notes: Mouse IgG1 from hybridoma m166-43B6; also called m166-43B6; M166-43136
Take B3: the IC50 in assay [4] came out at 0.08 µg/mL. The binding result in assay [5], in [6] and in [7] was “binds” each time. Besides, the “Percentage … Day 0 non-activated human T cells” value in [8] is 6.57%. The “Percentage … in vitro activated human T cells” value in [8] turned out to be 49.4%.

B4: mouse 15A7 antibody (antibody, V domains shown)
VL: DILMTQTPLSLPVSLGDQASISCRSSQSIVHNDGNTYFEWYLQKPGQSPKLLIYKVSNRFSGVPDRFSGSGSGTHFTLNISRVEAEDLGIYYCFQGSYVPLTFGAGTKLELK
VH: DVQLVESGGGLVQPGGSRKLSCAASGFTFSSFGMHWVRQAPEKGLEWVAYINGGSSTIFYANAVKGRFTISRDNPKNTLFLQMTILRSEDTAIYYCGRYASYGGGAMDYWGQGTSVTVSS
notes: Mouse IgG1 from hybridoma m152-15A7; also called m15A7; m152-15A7
Take B4: the IC50 in assay [9] is greater than 20 µg/mL; in [3] it was 3.72 µg/mL. In assay [2], this molecule showed a Ka of 4.03e+07 M⁻¹. Further, the binding result in assay [6] was “binds”; in [10], “no binding (tested: 2 µg/ml)”; in [11], “no binding (tested: 2 µg/ml)”. In [8], the “Percentage … Day 0 non-activated human T cells” value is 5.23%. Further, the “Percentage … in vitro activated human T cells” value in [8] worked out at 51.7%.

B5: chimeric 15A7 antibody (antibody, V domains shown)
VH: DVQLVESGGGLVQPGGSRKLSCAASGFTFSSFGMHWVRQAPEKGLEWVAYINGGSSTIFYANAVKGRFTISRDNPKNTLFLQMTILRSEDTAIYYCGRYASYGGGAMDYWGQGTSVTVSS
VL: DILMTQTPLSLPVSLGDQASISCRSSQSIVHNDGNTYFEWYLQKPGQSPKLLIYKVSNRFSGVPDRFSGSGSGTHFTLNISRVEAEDLGIYYCFQGSYVPLTFGAGTKLELK
notes: Mouse 15A7 VL on the human light chain constant region (pVk) and mouse 15A7 VH on the human IgG1, IgG2 or IgG4 heavy chain constant region (pVg1, pVg2, pVg4)
Take B5: the Ka in assay [2] came to 2.62e+07 M⁻¹. The molecule further had an IC50 in assay [3] of roughly 5.71 µg/mL.
